Patent US20250313612A1 (Adimab, published 2025)

B1: ADI-14527 (antibody, V domains shown)
VH: QVQLVQSGAELKRPGSSVKVSCKASGVYLTSVAVNWVRQVPGHGFEWMGGILTGFGKVRHAQAFENRATLTADASTNTAYLELSGLQAEDTAAYYCAIIDPQDCTAASCFWVNWLDPWGQGTLVTVSS
VL: EIVLTQSPGTLTVSPGERATLSCRASQSVLSSHLAWYQQKPGQAPRLLIYAASSRATDVPDRFSGSGSGTDFTLTISRLEPQDFAVYYCQQYGSSPITFGQGTRLEIK
notes: IgG; also called Antibody Number 87
B2: ADI-14526 (antibody, V domains shown)
VH: EVQLVESGPGLVRPSQTLSIKCSVSGGSINRGAYFWTWIRQRPGKGLEWIGSIHDTGSYYNPSLKTRVSISGDTSKNLFTLELTSLTAADTAVYYCARGRGYSYGWRYFDSWGQGTLVTVSS
VL: SYVLTQPPSVSVSPGQTARITCSGDAFPRQYSYWYQQKAGQPPVLVILKDSERPSGIPARFSGSTSGTTVTLTITGVQAEDEADYYCQSSDSSGNYVVFGGGTKLTVL
notes: IgG; also called Antibody Number 86
B3: ADI-14529 (antibody, V domains shown)
VH: EVQLVESGGGLVKPGGSLRLSCAASGFIFRNAWMSWVRQAPGKGLEWVGRIKRTSEGGSVDYATPVQGRFSISRDDSRNTLYLQMNSLETDDTAVYYCSTGPPYSYFDSSGYSVVDYWGQGTLVTVSS
VL: QSVVTQPPSVSGTPGQRVTISCTGSSSNIGTPFDVHWYQQIPETAPKLIISGGFSRPSGVPDRFSGSQSGTSASLAISGLRSEDEGDYYCAAWDDSLSGPVFGGGTKLTVL
notes: IgG; also called Antibody Number 89
B4: ADI-14551 (antibody, V domains shown)
VH: QVQLQESGPGLVKPSETLSLTCSVSGGSIKRGAYFWTWIRQRPGKGLEWIGSMHDSGDYYNPSLKTRVTILGDTTKNHFTLKLTSVTVADTALYYCARGRGYSYGWRFFDNWGQGTLVTVSS
VL: NFMLTQPPSVSVSPGHSTRITCSGDALPKQYAYWYQQKPGQAPVLIMSKDSERPSGIPERFTGSSSGTTVTLTISGVQAEDEADYYCQSGDTSGSYVVFGGGTKVTVL
notes: IgG
B5: ADI-14528 (antibody, V domains shown)
VH: QVQLVQSGAEVKKPGSSVKVSCKVAGGSFSNYAIAWLRQAPGQGLEWMGGIIPAFNRAMYARKFQDRVTITAYASTTTAYLDITGLRSEDTALYYCARPAGDFGDLKWVRSPFDYWGQGTLVTVSS
VL: ETTLTQSPGTLSVSPGERATLSCRASQEVGINLAWYQQKPGQAPRLLIYGASTRATDVPARFSGSGSGTEFTLTISSLQSEDFAVYYCQEYNDWPPQLTFGPGTKVDIK
notes: IgG; also called Antibody Number 88
B6: ADI-14558 (antibody, V domains shown)
VH: QVQLVESGGGLIQPGASLRLSCGAYGFSFSSSAMSWVRQAPGKGLEWVSAISDNGGSTYYADSVQGRFTISRDNSKNTLYLQLNRLRAEDTAIYYCAKAYCSDSCHGGYFDYWGQGTLVTVSS
VL: EIVLTQSPATLSLSPGDRATLSCRASQSVSSSFAWYQQKPGQAPRLLIYAVSNRATGIPARFSGSGSGTDFTLTISTLEPEDFAVYYCQQRSTWPLTFGPGTKVEIK
B7: ADI-14562 (antibody, V domains shown)
VH: EVQLVESGPEVKGPGSSVKVSCEASAATFSNYAISWVRQAPGQGLEWMGGFVPMLGTRNYAQKFKGRVTLTADVSTHTLYLEIGSLRFEDTAVYYCATVAGLGTSYGRYLESWGQGTLVTVSS
VL: DIRMTQSPSSVSASLGDRVTITCRASQDISTALAWYQQIPGKAPKLLIYEASSLQSGVPSRFRGSGSETDFALTISSLQPEDFATYYCQQAKSFPYTFGQGTKVEIK
B8: ADI-14556 (antibody, V domains shown)
VH: EVQLVESGGGLVQPGGSLRLSCAASGFTFRSYWMTWVRQAPGKGLEWVASINDEGNTKYYVDSLKGRFTISRDNAKNSLYLQMNSLRAEDTAVYYCARESGLPRGAFQIWGPGTMVTVSS
VL: EIVLTQSPVTLSLSPGERATLSCRASQSVGTFLAWYQHKPGQAPRLLIYDASNRASAIPARFSGSGSGTDFTLTISSLEPEDFAVYYCQHRSDWWTFGQGTKVEIK
B9: ADI-14555 (antibody, V domains shown)
VH: QVQLVQSGGGLVQPGGSLRLSCAASGLTFSSYAMSWVRQAPGKELEWVSSISESGVDTYYADSVKGRFTVSRDNSKSTLYLQMSSLGGDDTAVYYCAKAYCSNKACHGGYFDYWGQGTLVTVSS
VL: ETTLTQSPDTLSLSPGERATLSCRASQSVRNYLAWYRQKPGQAPRLLIYDASNLATGIPARFSGSGSGTDFTLTISSLEPEDFAVYYCHQRSDWPLTFGPGTKVEIK
B10: ADI-14557 (antibody, V domains shown)
VH: QVQLQQWGAGLLKPSETLSLTCQVYGVSFSDYYWNWIRQSPGKGLEWIGDVNHIGNTDYNPSLKSRVSISVDTSKNQFSLTLRSVTAADTALYYCARGRKLFEVPPKAPDYWGQGTLVTVSS
VL: DIVMTQSPGTLSLSPGERATLSCRASQSVSSTYLAWYQQKPGQAPRLLIYGASIRATGIPDRFSGVGSGTDFTLTISRLEPEDVAVYYCQQYGSSPQTFGQGTKVEIK
B11: ADI-14542 (antibody, V domains shown)
VH: QVQLVQSGAEVKKPGESLKISCKGSGYVFSSYWVAWVRQMPGKGLEWMGIIYPHDSDTRYSPAFQGQVTISADKSINTAYLQWSSLKASDTAMYYCTIILIPAPIRAPDGFDIWGQGTTVTVSS
VL: NFMLTQPHSVSESPGKTVTISCTGSGGTIASNYVQWYQQRPGSVPTTVIYENNERPSGVPDRFSGSIDRSSNSASLTISGLKTEDEADYYCQSYDSSYHVVFGGGTKVTVL
B12: ADI-14544 (antibody, V domains shown)
VH: QVQLVQSGAEVKKPGESLKISCKGAGFGSTNSWIGWVRQMPGKGLEWMGVIFPGDSDTKYSPTFQGQVTISVDKSINTAYLQWSSLKASDTAIYYCARMLASVGLSNFDAWGQGTLVTVSS
VL: QPVLTQPPSVSLAPGKTATITCGGNNIGGKSVHWYQQKPGQAPVLVIDYDSDRPSGIPERFSGSNSGNTATLTINRVEAGDEADYYCQVWDSISDHVLFGGGTKLTVL
B13: ADI-14563 (antibody, V domains shown)
VH: QVQLVQSGGGLAQPGGSLRLSCAASGFIFSVYEMDWVRQAPGKGLEWLSYIDITGNSVTYADSVRGRFTISRDNARNSLYLQMDSLRVEDTAVYYCVRDSRGPTTQWLTGYFDFWGQGTTVTVSS
VL: DIRMTQSPATLSLSPGERATLSCRASQSVSNYLAWYQQKPGQAPRLLIYDVSNRATGIPARFSGSGSGTDFTLTISSLEPEDFAVYYCQQRRNWPPLTFGGGTKVEVK
B14: ADI-14545 (antibody, V domains shown)
VH: EVQLVESGGGLVKPGGSLRLSCAASGFTFSNAWMSWVRQAPGKGLEWVGRVKSKSKGGTTHYAEAVKGRFTISRDDSKNTLYLQMQSLKTEDTAVYYCTSHAYNSDWFVTTDYYYYMDVWGKGTTVTVSS
VL: DIVLTQSPSSLSASVGDRVTFTCRASQSISNYLNWYQQKPGKAPKVLIYGASNLLSGVPSRFIGSGSGTDFTLTINSLQPEDFATYYCQQCYSAPITFGQGTRLEIK
B15: ADI-14550 (antibody, V domains shown)
VH: QVQLVQSGGGVVQPGRSLRLSCAASGFTFSDYAMHWVRQAPGKGLQWVSLISYNGRKKYYADSVKGRFTISRDDSKNTLYLQMNPLRPDDTAVYYCARDGDIVAVPAAIGLDYWGQGTLVTVSS
VL: DIVLTQSPESLAVSLGERATINCNSSQSVLYTSNNKNYLAWYQQKSGQPPKLLIYWASTRESGVPERFSGSGSGTDFTLTISSLQAEDVAVYYCQQYSSPPYTFGQGTKLEIK
B16: ADI-14541 (antibody, V domains shown)
VH: EVQLVESGGGLVRPGGSLRLSCAASGFAFSSYSLHWVRQAPGRGLEWVASISAGSSFTDYAASVRGRFTISRNIANSLYLQMNRLRAEDTAVYYCARVIGDGTILGVVF
VL: QSVLTQPPSVSGAPGQRVTISCTGGRSNIGAGYDVHWYQQLPGTAPKLLIYGNINRPSGVPDRFSGSKSGTSASLAITGLLAEDEADYYCQSYDSSLSVIFGGGTKLTVL
B17: ADI-14548 (antibody, V domains shown)
VH: EVQLVESGGGLVQPGGSLRLSCAASGFSFSTSWMSWVRQAPGKGLEWLANIKEDGSKKIYVDSVKGRFSISRDNAKNSLYLQMTSLRAEDTAVYYCARDVWGWELVGWLDPWGQGTLVTVSS
VL: SYELTQPPSVSVAPGKTASITCGGSNIGSRSVHWYQQKPGQAPVLVVYEDHDRPSGIPERFSGSNSGNTATLTISRVEAGDEADYYCQVWDSSRDHVVFGGGTKVTVL
B18: ADI-14543 (antibody, V domains shown)
VH: QVQLVQSGAEVKKPGSSVKVSCKASGDTFSSYAISWVRQAPGQGLEWMGGVLPMLGTANYAQRFRGRVTLTADGSTNTAYMEMSSLRLDDTAVYYCARVAGLGNSYGRYPDLWGQGTLVTVSS
VL: DIVMTQSPSSLSASVGDRVTITCRASQGISSSLAWYQQKPGKAPELLIYAASSLHSGVPSRFRGSGSGTDFTLTISSVQPEDFATYYCQQANSFPYTFGQGTKLEIK

biological target: T1, RSV F ectodomain stabilized in the postfusion conformation (F ΔFP), subtype B (Respiratory syncytial virus subtype B, UniProt P13843 26-109; P13843 147-524); experiment: BLI, IgG on AHQ sensors, 100 nM antigen
T1 construct: extracellular domain; trimer; also called Postfusion subtype B

| Binder | Kd [nM] |
| --- | --- |
| B1 | 0.645 |
| B2 | 0.342 |
| B3 | 0.798 |
| B4 | 0.195 |

biological target: T2, RSV F ectodomain stabilized in the postfusion conformation (F ΔFP), subtype A (Respiratory syncytial virus subtype A, UniProt P03420 26-109; P03420 147-524); experiment: BLI, IgG on AHQ sensors, 100 nM antigen
T2 construct: extracellular domain; trimer; also called Postfusion subtype A; Postfusion RSV F

| Binder | Kd [nM] |
| --- | --- |
| B1 | 0.889 |
| B2 | 0.346 |
| B5 | 35.2 |
| B3 | 1.71 |
| B4 | 0.207 |

biological target: RSV F protein of subtype A (strain A2) on recombinant mKate-RSV (Respiratory syncytial virus subtype A …, UniProt P03420 26-574); experiment: cell-based or functional assay

| Binder | Neut IC50 (µg/ml) subtype A [µg/mL] |
| --- | --- |
| B6 | > 10 |
| B7 | > 10 |
| B8 | > 10 |
| B1 | > 10 |
| B9 | > 10 |
| B10 | > 10 |
| B2 | 2.36 |
| B5 | > 10 |
| B11 | 0.008 |
| B12 | > 10 |
| B13 | > 10 |
| B3 | 2.38 |
| B14 | 0.036 |
| B15 | 2.62 |
| B16 | 0.023 |
| B17 | 0.034 |
| B18 | > 10 |

biological target: RSV F protein of subtype B (18537) on recombinant mKate-RSV (Respiratory syncytial virus subtype B …, UniProt P13843 26-574); experiment: cell-based or functional assay

| Binder | Neut IC50 (µg/ml) subtype B [µg/mL] |
| --- | --- |
| B6 | > 10 |
| B7 | 10.5 |
| B8 | > 10 |
| B1 | > 10 |
| B9 | > 10 |
| B10 | > 10 |
| B2 | 9.67 |
| B5 | 0.705 |
| B11 | 4.3 |
| B12 | > 10 |
| B13 | > 10 |
| B3 | 0.991 |
| B14 | 0.073 |
| B15 | > 10 |
| B16 | 0.106 |
| B17 | 0.094 |
| B18 | > 10 |
